Values of other authors in paper PMC3800467.

Biological target: RRGHYY peptide

For TEM1 β-lactamase (from UniProt P62593), the Ki is listed as 140 µM.
